A word on the Kd: it is the equilibrium constant for the complex coming apart.

The target in this assay is T1, 5C.C7 TCR (as measured by surface plasmon resonance) (mouse).
T1 construct: Kept apart from the TCR on cells because the SPR construct is not described
Briefly: SPR. (SPR reads the build-up and loss of mass on a sensor chip optically.)

B1: MCC-I-Ek (peptide-MHC)
chain 1: ANERADLIAYLKQATK
chain 2: IKEEHTIIQAEFYLLPDKRGEFMFDFDGDEIFHVDIEKSETIWRLEEFAKFASFEAQGALANIAVDKANLDVMKERSNNTPDANVAPEVTVLSRSPVNLGEPNILICFIDKFSPPVVNVTWLRNGRPVTEGVSETVFLPRDDHLFRKFHYLTFLPSTDDFYDCEVDHWGLEEPLRKHWEFEEKTLLPETKE
chain 3: VRDSRPWFLEYCKSECHFYNGTQRVRLLVRYFYNLEENLRFDSDVGEFRAVTELGRPDAENWNSQPEFLEQKRAEVDTVCRHNYEIFDNFLVPRRVEPTVTVYPTKTQPLEHHNLLVCSVSDFYPGNIEVRWFRNGKEEKTGIVSTGLVRNGDWTFQTLVMLETVPQSGEVYTCQVEHPSLTDPVTVEWKAQSTSAQNK
On to B1, for which the Kd worked out at 22.9 µM and the t1/2 stood at 5.77 s.

Values taken from US20140120557A1 (published 2014).
